Among the targets are Human FcRIIA[H] (human) (UniProt P12318); Human FcRIIB; Human FcRIII (human); Human FcRn; Mouse FcRIIB; Mouse FcRIV; Human FcR1 (human) (UniProt P12314); Human FcRIIA[R]; Mouse FcRI.
Common to all, as to experiment: ELISA
On the technique in general: In an ELISA, binding on a coated surface is turned into a signal by an enzyme label.

Chain of Human FcRIIA[H] (human) (P12318 34-217): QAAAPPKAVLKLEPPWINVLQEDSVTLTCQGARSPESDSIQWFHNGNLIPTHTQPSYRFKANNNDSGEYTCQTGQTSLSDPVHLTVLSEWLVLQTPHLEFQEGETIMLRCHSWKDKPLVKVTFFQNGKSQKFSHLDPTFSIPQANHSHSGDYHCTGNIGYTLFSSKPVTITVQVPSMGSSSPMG
Chain of Human FcR1 (human) (P12314 16-292): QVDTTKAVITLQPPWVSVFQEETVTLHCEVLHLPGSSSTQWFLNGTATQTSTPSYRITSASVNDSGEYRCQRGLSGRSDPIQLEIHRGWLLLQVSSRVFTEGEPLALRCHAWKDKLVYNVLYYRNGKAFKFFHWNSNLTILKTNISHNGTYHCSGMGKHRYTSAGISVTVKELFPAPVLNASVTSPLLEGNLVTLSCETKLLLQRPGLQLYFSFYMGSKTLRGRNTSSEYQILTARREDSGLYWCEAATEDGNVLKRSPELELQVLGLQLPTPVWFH
Chain of Human FcRIII (human) (P08637 17-208): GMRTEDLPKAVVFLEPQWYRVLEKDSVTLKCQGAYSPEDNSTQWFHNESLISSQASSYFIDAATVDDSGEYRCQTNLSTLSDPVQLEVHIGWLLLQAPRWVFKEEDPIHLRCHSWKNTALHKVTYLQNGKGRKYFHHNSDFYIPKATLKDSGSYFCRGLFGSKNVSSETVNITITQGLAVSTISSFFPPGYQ
Chain of Mouse FcRIV (A0A0B4J1G0 21-203): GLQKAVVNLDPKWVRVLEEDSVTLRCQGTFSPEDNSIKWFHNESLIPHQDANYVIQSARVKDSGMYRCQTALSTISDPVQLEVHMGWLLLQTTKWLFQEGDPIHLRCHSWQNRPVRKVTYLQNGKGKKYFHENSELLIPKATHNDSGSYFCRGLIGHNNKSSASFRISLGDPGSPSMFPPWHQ

For IgG1, the Kd (commonly the free concentration of one partner at which half of the binding sites on the other are occupied at equilibrium, for simple one-to-one binding) in the experiment with Human FcRIIA[H] (human) came out at 0.333 µM; with Human FcRIIB, 0.876 µM; in the experiment with Human FcRIII (human) it was 1.18 µM; with Human FcRn, 0.014 µM; in the experiment with Mouse FcRIIB, 0.375 µM; with Mouse FcRIV it was 0.00652 µM. Further, the Kd with Human FcR1 (human) was 0.000161 µM; in the experiment with Human FcRIIA[R], 0.2 µM; with Mouse FcRI, 0.00133 µM.

The values are drawn from patent publication US20190111115A1.
